The nanobody polyreactivity screen of Harvey et al. (2022)

Test: yeast display, Sf9 membrane polyspecificity reagent, FACS + sequencing; frameworks hold sequencing errors
In short: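 Galactose-induced (36–48 hours) yeast carrying a synthetic nanobody display library were exposed to 10% biotinylated, detergent-solubilized Sf9 membrane reagent at 4 °C for 1 hour. FACS followed streptavidin microbead enrichment, using low and high (top ~1%) gates for expression (anti-HA) and reagent binding (streptavidin). Colony PCR, MiSeq 2 × 250 sequencing and CDR-length filtering followed. Labels for polyreactivity reflect the gate of origin.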

Sequence	polyreactivity (PSR sort gate)
QVQLVESGGGLVQAGGSLRLSCAASGLTFWVYTMGWYRQAPGKERELVAAITRGGSTTYADSVKGRFTISRDNAKNSVYLQMNSLQPEDTAVYYCNAVYKYSVVYKLDYWGQGTQVTVSS	high polyreactivity
QVQLVESGGGLVQAGGSLRLSCAASGLTFWYYAMGRYRHAPRKERELVATITWSGRTYYADSVKGRFTISRDNAKNTVYLQMNSLKTEDTAVYYCNAVKGRLQYSYDYWGQGTQVTVSS	high polyreactivity
QVQLVESGGGLVQAGGSLRLSCAASGLTFWYYAMGWYRQAPGKERELVAAITSVGSTYYADSVKGRFTISRDNAKNTVYLQMNSLKPEDTAVYYCAAGVPPLYFRRGGDYWGQGTQGTVSS	high polyreactivity
QVQLVESGGGLVQAGGSLRLSCAASGLTFYANAMGWYRQAPGKERELVAAITSSGGSTYYADSVKGRFTISRDNAKNTVYLQMNSLKPDDTAVYYCNAYFRPRYGYWGQGTQVTVSS	high polyreactivity
QVQLVESGGGLVQAGGSLRLSCAASGLTFYDYAKGWYRQAPGKELELVADIDFNGGSTSYADSVKGRFTISRDNAKNTVYLQMNSLKPEDTAVYYCAVDFIYWFHSRSSYIYDYWGQGSQVTVSS	low polyreactivity
QVQLVESGGGLVQAGGSLRLSCAASGLTFYEYAMGWYRQAPGKERELVAAISWRGDSTHYADSVKGRFTISRDNAKNTVYLQMNSLKPEDTAVYYCNTRRLHGWLYGYEYWGQGTQVTVSS	low polyreactivity
QVQLVESGGGLVQAGGSLRLSCAASGLTFYFNAMVWYRQAPVKERQLVAAIDWGGGSTYYADSVKGRFTISRDNAKNTVYLQMNSLNPEDTAVYYCGARGYYYNYDVNYWVQGTQVTVSS	low polyreactivity
QVQLVESGGGLVQAGGSLRLSCAASGLTFYGYGMGWYRQAPGKERELVASITSGGNTYYADSVKGRFTISRDNAKNTVYLQMNSLKPEDTAVYYCNADDGGPGVVLPTKEYDYWGQGTQVTVSS	low polyreactivity
QVQLVESGGGLVQAGGSLRLSCAASGLTFYKYAMGWYRQAPGKERELVAAITSTGGSTYYADSVKGRFTISRDNAKNTVYLQMNSLKPEDTAVYYCAAQWYTALYYWGQGTQVTVSS	high polyreactivity
QVQLVESGGGLVQAGGSLRLSCAASGLTFYLYAMGWYRPAPGKERELVAGISYRGASTYYADSVKGRFTISRDNAKNTVYLQMNSLKPEDTAVYYCAADDTTPNGVYWGQGTQVTVSS	low polyreactivity
QVQLVESGGGLVQAGGSLRLSCAASGLTFYLYVMGWYRQAPGKERELVAAISRRGGTTYYADSVKGRFTISRDNAKNTVYLQMNSLKPEDTAVYYCAADFFAGTQRTFDYWGQGTQVTVSS	high polyreactivity
QVQLVESGGGLVQAGGSLRLSCAASGLTFYLYVMGWYRQAPWKERELVAAISRRGGSTYYADSVKGRFTISRDNAKNTVYLQMNSLKPEDTAVYYCAARVYGTYRGIQYGYWGQGTQVTVSS	high polyreactivity
QVQLVESGGGLVQAGGSLRLSCAASGLTFYNARGWYRQAPGKERELVAAISGTVSRTYYADSVKGRFTISRDNAKNTVYLEMNSLKPEDTAVYYCAVRWYGKYSGVRYYYWGQGTQVNVSS	high polyreactivity
QVQLVESGGGLVQAGGSLRLSCAASGLTFYQNAMGWYRQAPGKERELVAAISSSGGRTYYADSVKGRFTISRDNAKNTVYLQMNSLKPEDTAVYYCAAYRRYRNWFNYWGQGTQVTVSS	high polyreactivity
QVQLVESGGGLVQAGGSLRLSCAASGLTFYSYAMGWYRQAPGKERELVAAISSSGGNTYYADSVKGRFTISRDNAKNTVYLQMNSLKPEDTAVYYCNVYHWSRVFAIDYYWGQATQVTVSS	high polyreactivity
QVQLVESGGGLVQAGGSLRLSCAASGLTFYTYAMGWYRQAPGKERELVAAISGGGRTHYADSVKGRFTISRDNAKNTVYLQMNSLKPEDTAVYYCAKDKGFLVRYDDLHDYDYWGQGTQVTVSS	low polyreactivity
QVQLVESGGGLVQAGGSLRLSCAASGLTFYTYAMGWYRQAPGKERELVAAISGRGSRTFYADSVKGRFTISRDNAKNTVYLQMNSLKPEDTAVYYCAARVWSSFTGAYDYWGQGTQVTVSS	high polyreactivity
QVQLVESGGGLVQAGGSLRLSCAASGLTFYVYAMGWYRQAPGKEREFVAAITRSGGSTHFADSVKGGFTISRDNAKYTVYLQMNSLKPEDTAVYYGAARAIRYYIRYYYWGQGTQVTVSS	high polyreactivity
QVQLVESGGGLVQAGGSLRLSCAASGLTFYYNTMGWYRQAPGKERELVAAINWSGGRTYYADSVKGRFTISRDNAKNTVYLQMNSLKPEDTAVYYCNAASSRALGYAYDYWGQGTQVTVSS	high polyreactivity
QVQLVESGGGLVQAGGSLRLSCAASGLTFYYYAMGWYRQAPGKEREFVAAISRSGGTTYYADSVKGRFTISRDNAKNTVYLQMISLKPEDTAVYYCNAQWWRYWPSQVIFDYWGQGTQVTVSS	high polyreactivity
QVQLVESGGGLVQAGGSLRLSCAASGLTFYYYAMGWYRQAPGKERELVAAITSGGITYYADSVKGRFTISRDNEKNTVYLQMNSLKPEDTAVYYCAARYHIDTLFYGSRYDYWGQGTQVTVSS	high polyreactivity
QVQLVESGGGLVQAGGSLRLSCAASGLTFYYYAMGWYRQAPGKERELVATISGSGGNTYYADSVKGRFTISRDNAKNTVYLQMNSLKPEDTAVYYCNARYRWWLYYSRDRVYCWGQGTQVTVSS	high polyreactivity

Sequence	polyreactivity (PSR sort gate)
QVQLVESGGGLVQAGGSLRLSCAASGLTFYYYAMGWYRQAPGKERELVATISSGGGRTYADSVKGRFTISRDNAKNTVYLQMNSLKPEDTAVYYCAVRNTKSYWFGYWGQGTQVTVSS	high polyreactivity
QVQLVESGGGLVQAGGSLRLSCAASGLTIASYVMGWYRQAPGKERELVAAISSSGDSTYYADSVKGRFTISRDNAKNTVYLQMNSLKPEDTAVYYCAAKDSVWGQGTQVTVSS	low polyreactivity
QVQLVESGGGLVQAGGSLRLSCAASGLTIQLYAMGWYRQAPGKERELVAAISGSGGRTYYADSVKGRFTISRDNAKNTVYLQMNSLKPEDTAVYYCAARPGSGRSYTSDYWGQGTEVTVSS	high polyreactivity
QVQLVESGGGLVQAGGSLRLSCAASGLTIVGNAMGWYRQAPGKERELVASISSRGGSTYYADSVKGRFTISLDNSKNTVYLQMNSLNPEDTAVYYCAAGNSYGVRLLYQIVTRYYWGQGTQVTVSS	high polyreactivity
QVQLVESGGGLVQAGGSLRLSCAASGLTIWRHAMGWYRQAPGKEREFVATISQNGGRTYYADSVKGRFTISRDNAKNTVYLQMNSLKPEDTAVYYCAADDWRWRYDYWGQGTQVTVSS	high polyreactivity
QVQLVESGGGLVQAGGSLRLSCAASGLTIWRYAMGWYRQAPGKETEFVASISQNGGRTDYADSVKGRFTISRDNAKNTVYLQMNSLKPEDTAVYYCAARRYYGVYYAFYFWRQGTQVTVSS	high polyreactivity
QVQLVESGGGLVQAGGSLRLSCAASGLTLAPYAMGWYRQAPGKERELVAAITFSGGSTYYADSVKGRLSISRDNAKNTVYLQMNSLKPEDTAVYYCARDTWAYKNGYPYYSWGQGTQVTVSS	low polyreactivity
QVQLVESGGGLVQAGGSLRLSCAASGLTLAWYAMGWYRQAPGKERELVAAISWSGDSTYYADSVKGRFTISRDNAKNTVYLQMNSLKPEDTAVYYCATRVYGGYGYWGQGTQVTVSS	high polyreactivity
QVQLVESGGGLVQAGGSLRLSCAASGLTLDYYAMGWSRQGPGKERELVAVIRGRSGSTYYADSVKGRFTISRDNAKNTDYLQMNSLKPEDTAVYYGARVTTYGDYYWGQGTQVTVSS	high polyreactivity
QVQLVESGGGLVQAGGSLRLSCAASGLTLFRYAMGWYRQAPGKERELVAAIDYGGGTYYADSVKGRFTISRDNAKNTVYLQMNSLKPEDTAVYYCAVEPEYKYYEGDYWGQGTQVTVSS	low polyreactivity
QVQLVESGGGLVQAGGSLRLSCAASGLTLKYYAMGWYRQAPGKERELVAAITYSGGSTYYADSVKGRFTFSRDNAKNTVYLQMNSLIPEDTAVFYCNAGPSVTSGYDYDYWGQGTQVTVSS	low polyreactivity
QVQLVESGGGLVQAGGSLRLSCAASGLTLRCNTMGWYRQAPGKERELVADITASAGSTYYADSVKGRFTISRDNAKNTVYLQMISLKPEDTAVYYCAARVYIAYISMDHWGQGTQVTVSS	low polyreactivity
QVQLVESGGGLVQAGGSLRLSCAASGLTLRRYAMGWYRQAPGKERELVASINSGTSTKYADSVKGRFTISRDNAKNTVYLQMNSLKPEDTAVYYCAAAGYFPTAGSRRAYYYWGQGTQVTVSS	high polyreactivity
QVQLVESGGGLVQAGGSLRLSCAASGLTLSGYAMGWYRQAPGKERELVAAISSTGGSTYYADSVKGRFTISRDNAKNTVYLQMNSLKPEDTAVYYCAKGFSPTRVRLRYPRYDTYNHWGQGTQVTVSS	high polyreactivity
QVQLVESGGGLVQAGGSLRLSCAASGLTLSYNAMGWYRQAPGKERELVAAIRSGGSTNYADSVKGRFTISRDNAKNTVYLQMNSLKPEDTAVYYCAARFRYLPYRYGRYQSGYEYWGLGTQVTVSS	high polyreactivity
QVQLVESGGGLVQAGGSLRLSCAASGLTLTHYAMGWYRQAPGKERELVATISRSGGRTYYADSVKGRFTISRDNAKNTVYLQMNSLKPEDTAVYYCNAEYYYGRGWYDYWGQGTQVTVSS	high polyreactivity
QVQLVESGGGLVQAGGSLRLSCAASGLTLYKNGMGWYRQAPGKERELVAVISRSGGRTYYADSVKGRFTISRDNAKNTVYVQMNSLKPEDTAVYYCAARQYGPRYTYYYWGQGTQVTVSS	high polyreactivity
QVQLVESGGGLVQAGGSLRLSCAASGLTSLSYAIGWYRQAPGKERELVAAITLSGCRTYYADSVKGRFTISRDNAKNTVYLQMNSLIPEDTAVYFCAVAGYWYSYGRKYLTTFEYWGQGTQVTVSS	high polyreactivity
QVQLVESGGGLVQAGGSLRLSCAASGLTSNGYDMGWYRQAPGKERELVAGITSGGSPYYADSVKGRFTISRDNAKNTVYLQMNSLKPEDTAVYYCNADVTYYIVWEYDYWGQGTQVTVSS	low polyreactivity
QVQLVESGGGLVQAGGSLRLSCAASGLTSNGYHMGWYRQAPGKERELVAGITSGGSTYYADSVKGRFTISRDNAKNTVYLQMNSLKPEDTAVYYCNADVTYYIVWEYDYWGQGTQVTVSS	low polyreactivity
QVQLVESGGGLVQAGGSLRLSCAASGLTSWYYAMGWYRQAPGKERELVAAITSGGSTYYADSVKGRFTISRDNAKNTVYLQMNSLKPEDTAVYYCAKKKRSYYYYPYDYWGQGTQVTVSS	high polyreactivity
